Measured values taken from patent publication EP4034238B1 (Centro Nacional de Investigaciones Cardiovasculares Carlos …, dated 2025).

Key:
[1] = target: T1, Aldehyde Dehydrogenase 4 Family Member A1 (ALDH4A1), endogenous mouse protein from aorta lysate (mouse, UniProt Q8CHT0 24-562); assay: deep proteomics analysis (IP + mass spectrometry)
T1 construct: Native protein precipitated from mouse aorta lysates; also called ALDH4A1 mitochondrial protein
T1 sequence (looked up): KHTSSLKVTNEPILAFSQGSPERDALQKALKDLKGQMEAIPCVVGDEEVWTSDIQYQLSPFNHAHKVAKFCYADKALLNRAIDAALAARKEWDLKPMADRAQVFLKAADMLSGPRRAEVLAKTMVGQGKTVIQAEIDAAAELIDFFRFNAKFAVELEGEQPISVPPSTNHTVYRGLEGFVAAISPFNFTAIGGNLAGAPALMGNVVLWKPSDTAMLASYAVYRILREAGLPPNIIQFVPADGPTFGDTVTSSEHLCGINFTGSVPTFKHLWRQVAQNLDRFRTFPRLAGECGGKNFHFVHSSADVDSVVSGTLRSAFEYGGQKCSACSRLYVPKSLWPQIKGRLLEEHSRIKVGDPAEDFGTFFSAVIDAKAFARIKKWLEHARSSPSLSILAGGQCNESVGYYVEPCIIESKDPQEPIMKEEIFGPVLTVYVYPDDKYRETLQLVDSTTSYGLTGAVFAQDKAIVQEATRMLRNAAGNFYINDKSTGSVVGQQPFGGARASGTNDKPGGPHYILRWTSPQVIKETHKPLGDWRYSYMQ

[2] = target: T2, ALDH4A1-FLAG protein (mouse ALDH4A1, C-Flag tag) (mouse, UniProt Q8CHT0 24-562, limits assumed); assay: ELISA screen for ALDH4A1 reactivity (mark in Table 1)
T2 construct: Purified on anti-FLAG M2 gel and coated at 5 ug/ml in the ELISAs; used as lysate of transfected HEK293T cells in the IP; also called murine ALDH4A1-FLAG; not shown: C-terminal FLAG tag
T2 sequence (looked up): T1 sequence (looked up)

- binding result [1]: binds
- binding result [2]: binds
B1: A12 antibody (antibody, human IgG1, V domains shown)
VH: EVQLVESGGDLVKPGGSLKLSCAASGFTFSSYGMSWVRQTPDKRLEWVATISSGGSYTYYPDSVKGRFTISRDNAKNTLYLQMSSLKSEDTAMYYCARPHVVTTPGWYFDVWGTGTTVTVSS
VL: DIVMTQSPATLSVTPGDRVSLSCRASQSISDYLHWYQQKSHESPRLLIKYASQSISGIPSRFSGSGSGSDFTLSINSVEPEDVGVYYCQNGHSFPLTFGAGTKLELK
notes: also called huA12-IgG1
